The results in this text go back to US20110124010A1.

Test [1] deals with Myelin basic protein (MBP) (human) (UniProt P02686). In words: flow cytometry, intracellular staining of CD14+ macrophages from CSF; isotype control background.
Test [2] has the same target. The test can be described thus: flow cytometry, intracellular staining of CD14+ macrophages from peripheral blood; isotype control background.

Chain of UniProt P02686 (P02686 whole entry): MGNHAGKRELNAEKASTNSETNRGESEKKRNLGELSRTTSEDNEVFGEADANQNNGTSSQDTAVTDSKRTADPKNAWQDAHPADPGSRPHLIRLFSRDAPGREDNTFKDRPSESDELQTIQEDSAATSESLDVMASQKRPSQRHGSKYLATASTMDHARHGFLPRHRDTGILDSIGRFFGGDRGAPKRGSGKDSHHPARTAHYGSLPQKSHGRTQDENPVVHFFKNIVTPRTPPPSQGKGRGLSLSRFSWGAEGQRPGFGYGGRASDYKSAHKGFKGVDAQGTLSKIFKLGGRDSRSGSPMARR

As to “Non-specific isotype specific antibody (Rabbit IgG) from Epitomics”, the Geometric Mean FI in test [1] turned out to be 292; in test [2], 766. The Mean FI in test [1] was 328; in test [2], 783.
